The data set concerns the molecule itself. The data set can be described thus: bead aggregation assay.

B1: hTMIGD1-Fc (extracellular domain of hTMIGD1, AA 1-222, fused to the Fc-part of human IgG) (Fc fusion)
chain: VLTVNGKTENYILDTTPGSQASLICAVQNHTREEELLWYREEGRVDLKSGNKINSSSVCVSSISENDNGISFTCRLGRDQSVSVSVVLNVTFPPLLSGNDFQTVEEGSNVKLVCNVKANPQAQMMWYKNSSLLDLEKSRHQIQQTSESFQLSITKVEKPDNGTYSCIAKSSLKTESLDFHLIVKDKTVGVPIE
B1: the binding result is “binds”.
